Measured values taken from US20240360203A1.
Like-named read-outs stand apart in the source and are kept apart here.

Assays:
Experiment in all cases: cell-based or functional assay
[1] = target: SARS-CoV-2 Delta (B.1.617.2) spike protein (SARS-CoV-2)
[2] = target: SARS-CoV-2 Delta (B.1.617.2) spike protein (SARS-CoV-2); remark: listed apart in the source
[3] = target: SARS-CoV-2 Delta (B.1.617.2) spike protein (SARS-CoV-2); remark: listed apart in the source
[4] = target: SARS-CoV-2 XBB.1.5 spike protein (SARS-CoV-2)
[5] = target: SARS-CoV-2 BQ.1.1 spike protein (SARS-CoV-2)
[6] = target: SARS-CoV-2 BQ.1 spike protein (SARS-CoV-2)
[7] = target: SARS-CoV-2 BA.2.75 spike protein (SARS-CoV-2)
[8] = target: SARS-CoV-2 BA.4.6 spike protein (SARS-CoV-2)
[9] = target: SARS-CoV-2 BA.2.12.1 spike protein (SARS-CoV-2)
[10] = target: SARS-CoV-2 Delta (B.1.617.2) spike protein (SARS-CoV-2); remark: listed apart in the source
[11] = target: SARS-CoV-2 BA.1.1 spike protein (SARS-CoV-2)
[12] = target: SARS-CoV-2 BA.2.75.2 spike protein (SARS-CoV-2)
[13] = target: SARS-CoV-2 XBB.1.5 spike protein (SARS-CoV-2); remark: listed apart in the source
[14] = target: SARS-CoV-2 XBB.1 spike protein (SARS-CoV-2)
[15] = target: SARS-CoV-2 BF.7.14 spike protein (SARS-CoV-2)
[16] = target: SARS-CoV-2 BF.7 spike protein (SARS-CoV-2)
[17] = target: SARS-CoV-2 BA.4/5 spike protein (SARS-CoV-2)
[18] = target: SARS-CoV-2 BA.1 spike protein (SARS-CoV-2)
[19] = target: SARS-CoV-2 CH.1.1 spike protein (SARS-CoV-2)
[20] = target: SARS-CoV-2 BA.2 spike protein (SARS-CoV-2)
[21] = target: SARS-CoV-2 BN.1 spike protein (SARS-CoV-2)
[22] = target: SARS-CoV-2 BA.2.3.20 spike protein (SARS-CoV-2)
[23] = target: SARS-CoV-2 BQ.1.1 spike protein (SARS-CoV-2); remark: listed apart in the source
[24] = target: SARS-CoV-2 BA.4/5 Spike on pseudovirus (SARS-CoV-2) (UniProt P0DTC2)
[25] = target: SARS-CoV-2 Delta (B.1.617.2) spike protein (SARS-CoV-2); remark: listed apart in the source

## Bebtelovimab (antibody)
[1]
  pseudovirus neutralization EC80, Vero E6 (bebtelovimab + isotype): 3.5 ng/mL
[2]
  pseudovirus neutralization EC90, Vero E6 (bebtelovimab + isotype): 12 ng/mL
[3]
  pseudovirus neutralization Emax, Vero E6 (bebtelovimab + isotype) (% neutralization): 99.7
[4]
  pseudovirus neutralization Emax, Vero E6 (bebtelovimab + isotype) (% neutralization): 0.55
[5]
  pseudovirus neutralization Emax, Vero E6 (bebtelovimab + isotype) (% neutralization): 55.6
[6]
  pseudovirus neutralization Emax (% neutralization): 72.2
[7]
  pseudovirus neutralization EC50: 0.65 ng/mL
  pseudovirus neutralization EC80: 8.2 ng/mL
  pseudovirus neutralization EC90: 36 ng/mL
  pseudovirus neutralization Emax (% neutralization): 99.5
[8]
  pseudovirus neutralization EC50: 0.2 ng/mL
  pseudovirus neutralization EC80: 2.5 ng/mL
  pseudovirus neutralization EC90: 11 ng/mL
  pseudovirus neutralization Emax (% neutralization): 99.6
[9]
  pseudovirus neutralization EC50: 0.2 ng/mL
  pseudovirus neutralization EC80: 1.2 ng/mL
  pseudovirus neutralization EC90: 3.6 ng/mL
  pseudovirus neutralization Emax (% neutralization): 99.9
[10]
  pseudovirus neutralization EC50: 3.8 ng/mL
  pseudovirus neutralization EC50, TMPRSS2-Vero E6 (bebtelovimab + isotype): 1.6 ng/mL
  pseudovirus neutralization EC50, Vero E6 (bebtelovimab + isotype): 0.63 ng/mL
  pseudovirus neutralization EC80: 23 ng/mL
  pseudovirus neutralization EC80, TMPRSS2-Vero E6 (bebtelovimab + isotype): 13 ng/mL
  pseudovirus neutralization EC80, Vero E6 (bebtelovimab + isotype): 4.2 ng/mL
  pseudovirus neutralization EC90: 66 ng/mL
  pseudovirus neutralization EC90, TMPRSS2-Vero E6 (bebtelovimab + isotype): 43 ng/mL
  pseudovirus neutralization EC90, Vero E6 (bebtelovimab + isotype): 13 ng/mL
  pseudovirus neutralization Emax (% neutralization): 99.9
  pseudovirus neutralization Emax, TMPRSS2-Vero E6 (bebtelovimab + isotype) (% neutralization): 99.7
  pseudovirus neutralization Emax, Vero E6 (bebtelovimab + isotype) (% neutralization): 99.7
[11]
  pseudovirus neutralization EC50: 0.12 ng/mL
  pseudovirus neutralization EC80: 1.3 ng/mL
  pseudovirus neutralization EC90: 5.6 ng/mL
  pseudovirus neutralization Emax (% neutralization): 99.9
[12]
  pseudovirus neutralization EC50: 0.46 ng/mL
  pseudovirus neutralization EC80: 6.3 ng/mL
  pseudovirus neutralization EC90: 29 ng/mL
  pseudovirus neutralization Emax (% neutralization): 99.5
[13]
  pseudovirus neutralization Emax (% neutralization): 2.01
  pseudovirus neutralization Emax, TMPRSS2-Vero E6 (bebtelovimab + isotype) (% neutralization): 2.93
  pseudovirus neutralization Emax, Vero E6 (bebtelovimab + isotype) (% neutralization): 4.21
[14]
  pseudovirus neutralization Emax (% neutralization): 10.8
[15]
  pseudovirus neutralization EC50: 0.22 ng/mL
  pseudovirus neutralization EC80: 1.4 ng/mL
  pseudovirus neutralization EC90: 4.1 ng/mL
  pseudovirus neutralization Emax (% neutralization): 99.8
[16]
  pseudovirus neutralization EC50: 0.11 ng/mL
  pseudovirus neutralization EC80: 1.7 ng/mL
  pseudovirus neutralization EC90: 8.5 ng/mL
  pseudovirus neutralization Emax (% neutralization): 99.8
[17]
  pseudovirus neutralization EC50: 0.073 ng/mL
  pseudovirus neutralization EC80: 1.2 ng/mL
  pseudovirus neutralization EC90: 6.4 ng/mL
  pseudovirus neutralization Emax (% neutralization): 99.8
[18]
  pseudovirus neutralization EC50: 0.17 ng/mL
  pseudovirus neutralization EC80: 1.8 ng/mL
  pseudovirus neutralization EC90: 7.2 ng/mL
  pseudovirus neutralization Emax (% neutralization): 99.8
[19]
  pseudovirus neutralization Emax (% neutralization): 5.32
[20]
  pseudovirus neutralization EC50: 0.2 ng/mL
  pseudovirus neutralization EC80: 1.4 ng/mL
  pseudovirus neutralization EC90: 4.4 ng/mL
  pseudovirus neutralization Emax (% neutralization): 99.9
[21]
  pseudovirus neutralization EC50: 0.467 ng/mL
  pseudovirus neutralization EC80: 5.3 ng/mL
  pseudovirus neutralization EC90: 22 ng/mL
  pseudovirus neutralization Emax (% neutralization): 99.4
[22]
  pseudovirus neutralization EC50: 12 ng/mL
  pseudovirus neutralization EC80: 360 ng/mL
  pseudovirus neutralization EC90: 2600 ng/mL
  pseudovirus neutralization Emax (% neutralization): 97.9
[23]
  pseudovirus neutralization Emax (% neutralization): 53
  pseudovirus neutralization Emax, TMPRSS2-Vero E6 (bebtelovimab + isotype) (% neutralization): 40.5
  pseudovirus neutralization Emax, Vero E6 (bebtelovimab + isotype) (% neutralization): 59.1
[24]
  IC50, pseudovirus neutralization: 0.3 ng/mL
[25]
  pseudovirus neutralization EC50, Vero E6 (bebtelovimab + isotype): 0.44 ng/mL
